According to publication PMC2944331, “Similarity of Recombinant Human Perlecan Domain 1 by Alternative Expression Systems Bioactive Heterogenous Recombinant Human Perlecan D1” (BMC Biotechnology, 2010):

Legend:
Experiment in all cases: far-Western, overlay or dot blot; growth factor dot blot: 500 ng growth factor bound to nitrocellulose; 1 μg/ml rhPln.198, rhPln.247 or heparinase III digested rhPln.247 in PBS-Tween overnight at 4°C; detected with anti-perlecan domain 1 mAb CSI 001-71
Conditions in all cases: both partners purified
[1] = target: T1, recombinant human perlecan domain 1, amino acids 1-198 (rhPln.198), enriched high Mr glycosylated pool (human, UniProt P98160 22-198, glycosaminoglycan chains, either heparan sulfate (about 1/3 of the pool) or chondroitin sulfate (about 2/3), at the three SGD linkage sites)
T1 construct: signal peptide in the construct; Heterogeneous proteoglycan pool with minor contaminants (bovine lumican, haemoglobin, BSA); also called rhPln.D1; Pln.D1

[2] = target: T2, rhPln.247 digested with heparinase III (human, UniProt P98160 22-247, heparan sulfate chains digested with heparinase III; chondroitin sulfate chains not digested)
T2 construct: signal peptide in the construct; Same polypeptide as m2; Only the glycosaminoglycan chains differ; also called heparinise III digested rhPln.247; rhPln.247 pre-digested with heparinase III; source: HEK 293 cells, enriched high Mr pool, then digested with heparinase III (1 mU/μg, overnight, 37°C)

[3] = target: T3, recombinant human perlecan domain 1, amino acids 1-247 (rhPln.247), enriched high Mr glycosylated pool (human, UniProt P98160 22-247, glycosaminoglycan chains, either heparan sulfate (about 1/3 of the pool) or chondroitin sulfate (about 2/3), at the three SGD linkage sites)
T3 construct: signal peptide in the construct; Heterogeneous proteoglycan pool; also called rhPln.D1; Pln.D1

Measured: binding result

T1 sequence (P98160 22-198): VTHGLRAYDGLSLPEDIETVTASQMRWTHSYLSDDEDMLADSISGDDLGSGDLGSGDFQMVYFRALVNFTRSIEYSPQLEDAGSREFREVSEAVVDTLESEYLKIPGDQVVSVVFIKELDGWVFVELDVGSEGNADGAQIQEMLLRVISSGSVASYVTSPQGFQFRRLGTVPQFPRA
T2 sequence (P98160 22-247): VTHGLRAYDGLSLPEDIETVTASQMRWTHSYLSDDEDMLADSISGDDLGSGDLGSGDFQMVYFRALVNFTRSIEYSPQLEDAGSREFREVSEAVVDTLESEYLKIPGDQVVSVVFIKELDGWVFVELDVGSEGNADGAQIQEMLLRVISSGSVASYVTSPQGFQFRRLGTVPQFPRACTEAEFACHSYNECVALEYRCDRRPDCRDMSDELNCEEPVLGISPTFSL
T3 sequence (P98160 22-247): as above

B1: recombinant human bone morphogenetic protein 6 (rhBMP-6) (ligand)
chain: SASSRRRQQSRNRSTQSQDVARVSSASDYNSSELKTACRKHELYVSFQDLGWQDWIIAPKGYAANYCDGECSFPLNAHMNATNHAIVQTLVHLMNPEYVPKPCCAPTKLNAISVLYFDDNSNVILKKYRNMVVRACGCH
notes: human bone morphogenetic protein 6, recombinant
binds: all assays above

B2: recombinant human bone morphogenetic protein 7 (rhBMP-7) (ligand)
chain: STGSKQRSQNRSKTPKNQEALRMANVAENSSSDQRQACKKHELYVSFRDLGWQDWIIAPEGYAAYYCEGECAFPLNSYMNATNHAIVQTLVHFINPETVPKPCCAPTQLNAISVLYFDDSSNVILKKYRNMVVRACGCH
notes: human bone morphogenetic protein 7, recombinant
binds: all assays above
